Measured values taken from patent publication US20250333531A1 (NORDIC NANOVECTOR ASA, published 2025).
Positions count from the first letter of the chain named.

T1: biotinylated truncated soluble human FcγRIIb (human, UniProt P31994 43-217, biotinylated)
T1 construct: extracellular domain; Bought
T1 sequence (looked up): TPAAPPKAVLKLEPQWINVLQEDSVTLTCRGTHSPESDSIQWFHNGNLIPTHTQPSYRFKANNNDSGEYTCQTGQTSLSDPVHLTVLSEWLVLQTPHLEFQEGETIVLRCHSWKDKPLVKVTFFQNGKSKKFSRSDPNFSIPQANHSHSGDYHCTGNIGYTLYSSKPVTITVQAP

T2: biotinylated truncated soluble human FcγRIIa-H131 (human, UniProt P12318 34-217, biotinylated)
T2 construct: extracellular domain; Bought
T2 sequence (looked up): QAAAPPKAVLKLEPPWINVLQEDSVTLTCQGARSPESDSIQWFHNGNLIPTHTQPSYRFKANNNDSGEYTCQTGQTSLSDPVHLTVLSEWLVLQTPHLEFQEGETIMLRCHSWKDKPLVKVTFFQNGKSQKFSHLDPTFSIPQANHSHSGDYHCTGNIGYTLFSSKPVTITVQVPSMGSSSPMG

T3: biotinylated truncated soluble human FcγRIIa-R131 (human, UniProt P12318 34-217, biotinylated)
T3 construct: extracellular domain; Bought
T3 sequence (looked up): T2 sequence (looked up) with H134R

T4: human CD37 (human, UniProt P11049 1-281)
T4 construct: whole, on cells; also called CD37 antigen
T4 sequence (looked up): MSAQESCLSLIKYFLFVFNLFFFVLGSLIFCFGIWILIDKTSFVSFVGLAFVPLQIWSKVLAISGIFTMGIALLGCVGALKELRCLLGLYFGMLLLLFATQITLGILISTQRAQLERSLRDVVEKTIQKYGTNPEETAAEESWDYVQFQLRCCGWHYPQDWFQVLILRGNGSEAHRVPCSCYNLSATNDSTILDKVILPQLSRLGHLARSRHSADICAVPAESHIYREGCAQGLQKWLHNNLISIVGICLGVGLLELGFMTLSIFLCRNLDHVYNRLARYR

B1: NNV003 (antibody, human IgG1, kappa)
heavy: not shown
light: DIVMTQSHKLLSTSVGDRVSITCKASQDVSTAVDWYQQKPGQSPKLLINWASTRHTGVPDRFTGSGSGTDYTLTISSMQAEDLALYYCRQHYSTPFTFGSGTKLEIKRTVAAPSVFIFPPSDEQLKSGTASVVCLLNNFYPREAKVQWKVDNALQSGNSQESVTEQDSKDSTYSLSSTLTLSKADYEKHKVYACEVTHQGLSSPVTKSFNRGEC
notes: Mouse/human IgG1 kappa chimera of lilotomab; also called chHH1; chimeric HH1
B2: AH02895 (antibody, human IgG1, kappa, V domains shown)
VH: QIQLVQSGAEVVKPGASVKVSCKASGYSFTDYNMYWVKQAPGQRLEWMGYIDPYNGDTTYNQKFKGRATITRDTSASTAYIELSSLRSEDTAVYYCARSPYGHYAMDYWGQGTLVTVSS
VL: DIQMTQSPSSLSASVGDRVTITCKASQDVSTAVDWYQQKPGKAPKLLINWASTRHTGVPSRFSGSGSGTDYTLTISSMQPEDFATYYCRQHYSTPFTFGQGTKLEIKR
notes: Humanized IgG1 kappa; also called NNV020 #6

Legend:
[1] = target: T5, biotinylated soluble human FcRn (human, UniProt P55899 24-297; P61769 21-119, biotinylated); assay: ELISA: IgG coated at 1000-0.45 ng/ml, biotinylated soluble human FcRn 250 ng/ml pre-complexed with AP-streptavidin, pH 6.0, absorbance 405 nm
T5 construct: extracellular domain; Bought; Beta-2-microglobulin is not mentioned; Used as preformed complex with AP-streptavidin
T5 sequence (P55899 24-297 limits assumed, chain 1 of 2): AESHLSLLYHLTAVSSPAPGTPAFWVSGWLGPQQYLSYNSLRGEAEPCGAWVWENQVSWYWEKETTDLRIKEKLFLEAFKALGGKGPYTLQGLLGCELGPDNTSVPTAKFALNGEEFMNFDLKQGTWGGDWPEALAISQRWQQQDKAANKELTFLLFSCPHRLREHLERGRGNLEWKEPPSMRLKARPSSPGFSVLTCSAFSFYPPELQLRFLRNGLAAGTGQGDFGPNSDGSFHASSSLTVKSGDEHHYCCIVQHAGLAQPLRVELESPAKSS
T5 sequence (P61769 21-119 limits assumed, chain 2 of 2): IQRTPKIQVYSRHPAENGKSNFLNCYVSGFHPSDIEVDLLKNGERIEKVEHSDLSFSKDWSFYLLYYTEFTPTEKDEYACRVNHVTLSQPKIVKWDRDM
Protocol: (§1) Remaining surface area were blocked with PBS containing 0.05% T and 4% S for 1 h at RT. The plates were washed four times with PBS/T using a Hydrospeed™ plate washer (Tecan). […] Following washing as above with PBS/T or FcRn binding buffer (67 nM phosphate, 0.1 M NaCl, 0.05% T, pH 6.0), bound receptor was visualized by addition of phosphatase substrate (1 mg/ml in diethanolamine buffer) (Sigma Aldrich). The plates were developed for 20-30 min before the 405 nm absorption values were recorded using a TECAN Sunrise spectrophotometer (Tecan).

[2] = target: T6, biotinylated truncated soluble human FcγRI (human, UniProt P12314 16-292, biotinylated); assay: ELISA: IgG coated at 10000-4.5 ng/ml, biotinylated truncated soluble human FcγRI 250 ng/ml pre-complexed with AP-streptavidin, absorbance 405 nm
T6 construct: extracellular domain; Bought; preformed complex with AP-streptavidin
T6 sequence (P12314 16-292): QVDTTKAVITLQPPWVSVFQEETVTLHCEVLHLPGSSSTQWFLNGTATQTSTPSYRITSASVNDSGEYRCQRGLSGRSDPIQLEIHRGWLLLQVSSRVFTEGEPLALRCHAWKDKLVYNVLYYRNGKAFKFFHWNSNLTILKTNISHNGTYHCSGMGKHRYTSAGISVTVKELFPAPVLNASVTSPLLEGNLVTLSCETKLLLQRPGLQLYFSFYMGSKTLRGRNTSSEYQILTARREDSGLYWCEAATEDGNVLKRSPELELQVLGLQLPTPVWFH
Protocol: as §1, with “96 well EIA/RIA plates (CorningCostar) were coated with 100 μl titrated amounts of IgG variants (10.000-4.5 ng/ml) diluted in PBS and incubated O/N at 4° C. Remaining” for “Remaining”, “above,” for “above with PBS/T or FcRn binding buffer (67 nM phosphate, 0.1 M NaCl, 0.05% T, pH 6.0),”, “15-20” for “20-30”

[3] = target: T1, biotinylated truncated soluble human …; assay: ELISA: IgG coated at 10000-4.5 ng/ml, biotinylated truncated soluble human FcγRIIb 250 ng/ml pre-complexed with AP-streptavidin, absorbance 405 nm
Protocol: as §1, with “96 well EIA/RIA plates (CorningCostar) were coated with 100 μl titrated amounts of IgG variants (10.000-4.5 ng/ml) diluted in PBS and incubated O/N at 4° C. Remaining” for “Remaining”, “above,” for “above with PBS/T or FcRn binding buffer (67 nM phosphate, 0.1 M NaCl, 0.05% T, pH 6.0),”, “15-20” for “20-30”

[4] = target: T7, human complement factor C1q (human, UniProt P02745 23-245; P02746 28-253; P02747 29-245); assay: ELISA: IgG coated at 20000-156.25 ng/ml, human C1q 360 ng/ml, detected with rabbit anti-human C1q and HRP anti-rabbit IgG (y axis printed as Absorbance 405 nm)
T7 construct: Bought
T7 sequence (P02745 23-245 limits assumed, chain 1 of 3): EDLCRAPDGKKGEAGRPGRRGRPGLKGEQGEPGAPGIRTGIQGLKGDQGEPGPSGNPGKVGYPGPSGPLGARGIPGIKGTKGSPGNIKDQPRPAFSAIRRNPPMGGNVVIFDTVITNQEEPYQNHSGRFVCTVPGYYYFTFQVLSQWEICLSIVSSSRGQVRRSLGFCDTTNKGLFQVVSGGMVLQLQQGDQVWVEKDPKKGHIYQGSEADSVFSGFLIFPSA
T7 sequence (P02746 28-253 limits assumed, chain 2 of 3): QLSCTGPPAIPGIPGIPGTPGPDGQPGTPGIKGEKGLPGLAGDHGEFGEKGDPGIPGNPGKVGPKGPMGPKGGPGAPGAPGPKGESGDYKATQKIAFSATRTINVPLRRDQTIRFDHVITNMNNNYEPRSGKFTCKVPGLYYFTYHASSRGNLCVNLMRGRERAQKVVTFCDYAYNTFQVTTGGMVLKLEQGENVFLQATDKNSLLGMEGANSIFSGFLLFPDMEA
T7 sequence (P02747 29-245 limits assumed, chain 3 of 3): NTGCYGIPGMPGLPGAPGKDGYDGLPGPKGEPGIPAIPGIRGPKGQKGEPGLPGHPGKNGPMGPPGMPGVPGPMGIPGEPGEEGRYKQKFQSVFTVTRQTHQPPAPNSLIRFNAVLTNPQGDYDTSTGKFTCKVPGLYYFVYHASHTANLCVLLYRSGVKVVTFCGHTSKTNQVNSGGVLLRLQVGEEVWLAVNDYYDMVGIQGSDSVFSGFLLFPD
Protocol: (§2) Remaining surface area were blocked with PBS containing 0.05% T and 4% S for 1 h at RT. The plates were then washed four times with PBS/T using a Hydrospeed™ plate washer (Tecan). Human C1q (Complement Technologies) diluted to 360 ng/ml in veronal buffer (Complement Technologies) were added and incubated for 30 min at 37° C. Detection of bound C1q was performed using a primary anti-human C1q antibody from rabbit (DAKO) diluted 1:10.000 in PBS/T/S and a secondary horseradish peroxidase (HRP) conjugated anti-rabbit IgG antibody diluted 1:5000 in PBS/T/S (GE Healthcare). Binding was visualized by addition of 100 μl TMB substrate (Calbiochem) for 15-20 min before the enzymatic reaction was stopped by addition of 50 μl 1 M HC1. The 450 nm absorption values were recorded using a Sunrise TECAN spectrophotometer (Tecan).

[5] = target: T7, human complement factor C1q; assay: repeat ELISA: IgG coated at 20000-156.25 ng/ml, human C1q 360 ng/ml, detected with rabbit anti-human C1q and HRP anti-rabbit IgG (y axis printed as Absorbance 405 nm)
Protocol: as §2

[6] = target: T2, biotinylated truncated soluble human …; assay: ELISA: IgG coated at 10000-4.5 ng/ml, biotinylated truncated soluble human FcγRIIa-H131 250 ng/ml pre-complexed with AP-streptavidin, absorbance 405 nm
Protocol: as §1, with “96 well EIA/RIA plates (CorningCostar) were coated with 100 μl titrated amounts of IgG variants (10.000-4.5 ng/ml) diluted in PBS and incubated O/N at 4° C. Remaining” for “Remaining”, “above,” for “above with PBS/T or FcRn binding buffer (67 nM phosphate, 0.1 M NaCl, 0.05% T, pH 6.0),”, “15-20” for “20-30”

[7] = target: T3, biotinylated truncated soluble human …; assay: ELISA: IgG coated at 10000-4.5 ng/ml, biotinylated truncated soluble human FcγRIIa-R131 250 ng/ml pre-complexed with AP-streptavidin, absorbance 405 nm
Protocol: as §1, with “96 well EIA/RIA plates (CorningCostar) were coated with 100 μl titrated amounts of IgG variants (10.000-4.5 ng/ml) diluted in PBS and incubated O/N at 4° C. Remaining” for “Remaining”, “above,” for “above with PBS/T or FcRn binding buffer (67 nM phosphate, 0.1 M NaCl, 0.05% T, pH 6.0),”, “15-20” for “20-30”

[8] = target: T8, biotinylated truncated soluble human FcγRIIIa-F158 (human, UniProt P08637 17-208, biotinylated); assay: ELISA: IgG coated at 10000-4.5 ng/ml, biotinylated truncated soluble human FcγRIIIa-F158 250 ng/ml pre-complexed with AP-streptavidin, absorbance 405 nm
T8 construct: extracellular domain; Bought
T8 sequence (P08637 17-208): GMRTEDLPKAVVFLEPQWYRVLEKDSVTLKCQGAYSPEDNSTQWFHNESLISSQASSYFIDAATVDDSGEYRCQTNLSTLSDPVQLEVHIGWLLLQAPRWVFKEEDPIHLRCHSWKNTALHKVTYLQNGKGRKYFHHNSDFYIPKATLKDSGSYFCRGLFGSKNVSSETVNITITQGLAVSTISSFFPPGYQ
Protocol: as §1, with “96 well EIA/RIA plates (CorningCostar) were coated with 100 μl titrated amounts of IgG variants (10.000-4.5 ng/ml) diluted in PBS and incubated O/N at 4° C. Remaining” for “Remaining”, “above,” for “above with PBS/T or FcRn binding buffer (67 nM phosphate, 0.1 M NaCl, 0.05% T, pH 6.0),”, “15-20” for “20-30”

human CD37 [9] = target: T4, human CD37; assay: competitive radioligand binding on Ramos cells; upper end tied by Table 18 to AH02895
human CD37 [10] = target: T4, human CD37; assay: competitive radioligand binding on Ramos cells; ratio to Ki of NNV009 (assumed 2.3)
Protocol: (§3) The Eppendorf LoBind tubes 1.5 mL were used to prepare dilutions (working concentrations) of Abs. As much as 0.2 mL of the cell suspension (800 000 cells/tube), after it has been cooled down for 30 min on ice, was aliquoted to glass 12×75 mm counting tubes. Each tube was pre-labeled with a code specifically determining each sample. The tubes with cells were maintained on ice for whole time course of the experiment except for the time when counted on the gamma counter. The tubes were agitated on a planetary shaker at 350 RPM, 4° C. (on ice) for 15 min. […] The tubes were placed on the planetary shaker (GL 064), on ice, and shaken for 4 hours at 350 RPM. After 3.5 hours past from the beginning of incubation, the samples were assayed on Wizard2 gamma counter using protocol “Lu-177 General” (all detectors except for the detector #3 were used). Upon completion the counting, the cells were washed with ice-cold 0.5 mL 0.5% BSAPBS three times. All the tubes were assayed on the Wizard2 gamma counter again using the same sequence and parameters as before the washing.

human CD37 [11] = target: T4, human CD37; assay: competitive radioligand binding on Ramos cells against 177Lu-NNV009 (2.7 nM), gamma counting
Protocol: as §3

Binder | EC50 (read off the curve) [1] [µg/mL] | EC50 (read off the curve) [2] [µg/mL] | EC50 (read off the curve) [3] [µg/mL] | EC50 (read off the curve) [4] [µg/mL] | EC50 (read off the curve) [5] [µg/mL] | EC50 (read off the curve) [6] [µg/mL] | EC50 (read off the curve) [7] [µg/mL] | EC50 (read off the curve) [8] [µg/mL] | fold affinity relative to NNV009 (human CD37 [9]) [fold] | Ki(NNV009)/Ki(NNV020 var.) (human CD37 [10]) [fold] | EC50 (human CD37 [11]) [nM] | Ki (human CD37 [11]) [nM]
B1 | ~0.04 | ~0.4 | ~0.7 | ~3 | ~1 | ~0.3 | ~0.8 | ~0.5 |  |  |  | 
B2 |  |  |  |  |  |  |  |  | 4 to 7 | 6.97 | 0.718 | 0.33
